# Results: the RNAGym collection of RNA variant scans (doi:10.1073/pnas.2313332121)
# Variants at the floor of the assay were thinned out.
# B1: TPR 5TU (parent)
# chain: GGAUCUUCUCGAUCUAACAAAAAAGACAAAUCUGCCACAAAGCUUGAGAGCAUCUUCGGAUGCAGAGGCGGCAGCCUUCGGUGGCGCGAUAGCGCCAACGUUCUCAACUAUGACACGCAAAACGCGUGCUCCGUUGAAUGGAGUUUAUCAUG
# Variants of: B1
# Assay: polymerase ribozyme fitness, log enrichment relative to wild type (log ratio); higher = more active; in vitro selection for triplet polymerase activity
# Summary of the method: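 Fitness measures genotype enrichment against wild-type enrichment on a logarithmic scale, with inverse-variance-weighted averaging of replicates. The logarithm is base 2, and genotypes were kept only with ≥10 input reads and ≥1 read per output in Illumina sequencing. The sequenced libraries came from one triplicate in vitro selection round, including frozen incubation at −7 °C, of PCR-built, transcribed mutant libraries of each subunit of a heterodimeric triplet polymerase ribozyme.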
row,Variant,polymerase ribozyme fitness (log ratio)
1,GGAUCUUCUCGAUCUAACAAAAAAGACAAAUCUGCCACAAAGCUUGAGAGCAUCUUCGGAUGCAGAGGCGGCAGCCUUCGGUGGCGCGAUAGCGCCAACGUUUUCAACUAUGACACGCAAAACGCGUGCUCCGGUGAAUGCAGUUUAUCAUG [C103U U134G G141C],-4.14
2,GGAUCUUCUCGAUCUAACAAAAAAGACAAAUCUGCCACAAAGCUUGAGAGCAUCUUCGGAUGCAGAGGCGGCAGCCUUCGGUGGCGCGAUAGCGCCAACGUUCUUAACUAUGUCACGCAAAACGCGUGCUCCGUUGAAUGGAGUUUAUCAUG [C105U A113U],-1.37
3,GGAUCUUCUCGAUCUAACAAAAAAGACAAAUCUGCCACAAAGCUUGAGAGCAUCUUCGGAUGCAGAGGCGGCAGCCUUCGGUGGCGCGAUAGCGCCAACGUUAUCAACUAUGACACGCAAAACGCGUGCUCCGUUGAAUGUAGUUUAUCAUG [C103A G141U],-3.08
4,GGAUCUUCUCGAUCUAACAAAAAAGACAAAUCUGCCACAAAGCUUGAGAGCAUCUUCGGAUGCAGAGGCGGCAGCCUUCGGUGGCGCGAUAGCGCCAACGUUCUCCACUAUGACACGCAAAACGCGUGCUCCGCUGAAUGGAGUUUAUCAUG [A106C U134C],0.274
5,GGAUCUUCUCGAUCUAACAAAAAAGACAAAUCUGCCACAAAGCUUGAGAGCAUCUUCGGAUGCAGAGGCGGCAGCCUUCGGUGGCGCGAUAGCGCCAACGUUCUCCACUAUGACACGCAAAACGGGUGCUCCGUUGAAUGGAGUUUAUCAUG [A106C C125G],-1.27
6,GGAUCUUCUCGAUCUAACAAAAAAGACAAAUCUGCCACAAAGCUUGAGAGCAUCUUCGGAUGCAGAGGCGGCAGCCUUCGGUGGCGCGAUAGCGCCAACGUUAUCAACUAUGACACGCAAAACGCGUGCUCCGUUGAAUGGUGUUUAUCAUG [C103A A142U],-3.79
7,GGAUCUUCUCGAUCUAACAAAAAAGACAAAUCUGCCACAAAGCUUGAGAGCAUCUUCGGAUGCAGAGGCGGCAGCCUUCGGUGGCGCGAUAGCGCCAACGUGCUCAACUAGGACACGCAAAACGCGUGCUCCGUUGAAUGGAGUUUAUCAUG [U102G U111G],≤ -4.2
8,GGAUCUUCUCGAUCUAACAAAAAAGACAAAUCUGCCACAAAGCUUGAGAGCAUCUUCGGAUGCAGAGGCGGCAGCCUUCGGUGGCGCGAUAGCGCCAACGUUCUAGACUAUGACACGCAAAACGCGUGCUCCGUUGAAUGGAGUUUAUCAUG [C105A A106G],-0.311
9,GGAUCUUCUCGAUCUAACAAAAAAGACAAAUCUGCCACAAAGCUUGAGAGCAUCUUCGGAUGCAGAGGCGGCAGCCUUCGGUGGCGCGAUAGCGCCAACGUGCUCAACUAUGACACGCAAGACGCGUGCUCCGUUGAAUGGAGUUUAUCAUG [U102G A121G],-2.33
10,GGAUCUUCUCGAUCUAACAAAAAAGACAAAUCUGCCACAAAGCUUGAGAGCAUCUUCGGAUGCAGAGGCGGCAGCCUUCGGUGGCGCGAUAGCGCCAACGUUCACAACUAUGACACGCAAAACGAGUGCUCCGUUGAAUGGAGUUUAUCAUG [U104A C125A],-0.813
11,GGAUCUUCUCGAUCUAACAAAAAAGACAAAUCUGCCACAAAGCUUGAGAGCAUCUUCGGAUGCAGAGGCGGCAGCCUUCGGUGGCGCGAUAGCGCCAACGUUCUCCACUAUGACACGCAAAACGCGUGCUCCGUUGAAUGUAGUUUAUCAUG [A106C G141U],0.961
12,GGAUCUUCUCGAUCUAACAAAAAAGACAAAUCUGCCACAAAGCUUGAGAGCAUCUUCGGAUGCAGAGGCGGCAGCCUUCGGUGGCGCGAUAGCGCCAACGUGCUCAACUAUGACAUGCAAAACGCGUGCUCCGUUGAAUGGAGUUUAUCAUG [U102G C116U],-2.66
13,GGAUCUUCUCGAUCUAACAAAAAAGACAAAUCUGCCACAAAGCUUGAGAGCAUCUUCGGAUGCAGAGGCGGCAGCCUUCGGUGGCGCGAUAGCGCCAACGUGCUCAACUAUGACACGCAAAACGCGUGCUCCGUUGAAUGUAGUUUAUCAUG [U102G G141U],-1.98
14,GGAUCUUCUCGAUCUAACAAAAAAGACAAAUCUGCCACAAAGCUUGAGAGCAUCUUCGGAUGCAGAGGCGGCAGCCUUCGGUGGCGCGAUAGCGCCAACGUUAUCAACUAUGACACGCAUAACAUGUGCUCCGUUGAAUGGAGUUUAUCAUG [C103A A120U G124A C125U],-2.03
15,GGAUCUUCUCGAUCUAACAAAAAAGACAAAUCUGCCACAAAGCUUGAGAGCAUCUUCGGAUGCAGAGGCGGCAGCCUUCGGUGGCGCGAUAGCGCCAACGUUCUUAACUAUGACAUGCAAAACGCGUGCUCCUUUGAAUGGCGUUUAUUAUG [C105U C116U G133U A142C C149U],-4.08
16,GGAUCUUCUCGAUCUAACAAAAAAGACAAAUCUGCCACAAAGCUUGAGAGCAUCUUCGGAUGCAGAGGCGGCAGCCUUCGGUGGCGCGAUAGCGCCAACGUUCUCCGCUAUGACACGCAAAACGCGUGCUCCGUUGAAUGGAGUUUAUCAUG [A106C A107G],-4.18
17,GGAUCUUCUCGAUCUAACAAAAAAGACAAAUCUGCCACAAAGCUUGAGAGCAUCUUCGGAUGCAGAGGCGGCAGCCUUCGGUGGCGCGAUAGCGCCAACGUUGUCAACUAUGACACGCAAAACGCGUGCUCCGUUGAAUGGAGUCUAUCAUG [C103G U145C],-1.74
18,GGAUCUUCUCGAUCUAACAAAAAAGACAAAUCUGCCACAAAGCUUGAGAGCAUCUUCGGAUGCAGAGGCGGCAGCCUUCGGUGGCGCGAUAGCGCCAACGUUCUCGACUAUGACAUGCAAAACGCGUGCUCCGUUGAAAGGAGUUUAUCAUG [A106G C116U U139A],≤ -4.2
19,GGAUCUUCUCGAUCUAACAAAAAAGACAAAUCUGCCACAAAGCUUGAGAGCAUCUUCGGAUGCAGAGGCGGCAGCCUUCGGUGGCGCGAUAGCGCCAACGUUCUCCACGAUGACACGCAAAACGCGUGCUCCGUUGAAUGGAGUUUAUCAUG [A106C U109G],-0.424
